# Experimental data: article PMC12397115 (European Journal of Nuclear Medicine and Molecular Imaging, 2025)
# Several values for one entry are separate records, joined by “and”; a condition that tells them apart may be missing. Equal values may be shown once. Read-outs that look alike come from different tables or passages of the source.
# What was measured:
# [1] = type: in vivo, adolescent patients; conditions: for Kidneys projected CAD, median (range) / Kidneys projected CAD, mean (SD): coefficient × 4 × 7.4
# [2] = Blood pharmacokinetics after one administration, population approach; type: in vivo, adolescent and adult patients
# [3] = Laboratory abnormalities during Cycle 1, safety set; design: species or system adolescent patients; conditions: in vivo
# [4] = in vivo
# [5] = Observed, adult GEP-NET N=47, historical data; ref NETTER-1 and Erasmus studies; cited from earlier work
# [6] = ref NETTER-1, cited from earlier work
# [7] = Observed, adolescent GEP-NET and PPGL N=11
# [8] = adolescents, 11 patients, population approach
smiles,measurement,setting,value
"C[C@@H](O)[C@H](NC(=O)[C@@H]1CSSC[C@H](NC(=O)[C@@H](Cc2ccccc2)NC(=O)CN2CCN(CC(=O)O)CCN(CC(=O)O)CCN(CC(=O)O)CC2)C(=O)N[C@@H](Cc2ccc(O)cc2)C(=O)N[C@H](Cc2c[nH]c3ccccc23)C(=O)N[C@@H](CCCCN)C(=O)N[C@@H]([C@@H](C)O)C(=O)N1)C(=O)O [177Lu-DOTATATE, [^177Lu]Lu-DOTA-TATE, metal not drawn]","Kidneys absorbed dose coefficient, mean (SD)",[1]; All patients,0.78 ± 0.28 Gy/GBq and 0.78 (0.28) Gy/GBq
same,"Kidneys absorbed dose coefficient, median (range)",[1]; All patients,0.71 (0.46–1.3) Gy/GBq
same,"Red marrow (blood) absorbed dose coefficient, mean (SD)",[1]; All patients,0.026 ± 0.0050 Gy/GBq and 0.026 (0.0050) Gy/GBq
same,"Red marrow (blood) absorbed dose coefficient, median (range)",[1]; All patients,0.026 (0.019–0.035) Gy/GBq
same,"Red marrow (blood) projected CAD, mean (SD)",[1]; All patients,0.78 ± 0.15 Gy and 0.78 (0.15) Gy
same,"Red marrow (blood) projected CAD, median (range)",[1]; All patients,0.76 (0.55–1.0) Gy
same,"Spleen absorbed dose coefficient, mean (SD)",[1]; All patients,0.74 (0.27) Gy/GBq
same,"Spleen absorbed dose coefficient, median (range)",[1]; All patients,0.72 (0.28–1.1) Gy/GBq
same,"Spleen projected CAD, mean (SD)",[1]; All patients,22 (8.1) Gy
same,"Spleen projected CAD, median (range)",[1]; All patients,21 (8.3–34) Gy
same,"Total body absorbed dose coefficient, mean (SD)",[1]; All patients,0.040 (0.0095) Gy/GBq
same,"Total body projected CAD, mean (SD)",[1]; All patients,1.2 (0.28) Gy
same,"Total body projected CAD, median (range)",[1]; All patients,1.2 (0.66–1.6) Gy
same,"Urinary bladder wall absorbed dose coefficient, mean (SD)",[1]; All patients,0.55 (0.089) Gy/GBq
same,"Urinary bladder wall absorbed dose coefficient, median (range)",[1]; All patients,0.52 (0.47–0.68) Gy/GBq
same,"Urinary bladder wall projected CAD, mean (SD)",[1]; All patients,16 (2.6) Gy
same,"Urinary bladder wall projected CAD, median (range)",[1]; All patients,15 (14–20) Gy
same,"Tumour absorbed dose coefficient, mean (SD)","[1]; All patients, 18 lesions",2.0 (1.2) Gy/GBq
same,"Tumour absorbed dose coefficient, median (range)","[1]; All patients, 18 lesions",1.9 (0.17–5.1) Gy/GBq
same,"Tumour projected CAD, mean (SD)","[1]; All patients, 18 lesions",58 (37) Gy
same,"Tumour projected CAD, median (range)","[1]; All patients, 18 lesions",55 (4.9–150) Gy
same,"Pituitary absorbed dose coefficient, mean (SD)","[1]; All patients, n=9",1.1 (0.43) Gy/GBq
same,"Pituitary absorbed dose coefficient, median (range)","[1]; All patients, n=9",1.0 (0.61–1.9) Gy/GBq
same,"Pituitary projected CAD, mean (SD)","[1]; All patients, n=9",33 ± 13 Gy and 33 (13) Gy
same,"Pituitary projected CAD, median (range)","[1]; All patients, n=9",30 (18–56) Gy
same,"Kidneys projected CAD, median (range)",[1]; All patients,21 (14–40) Gy
same,"Kidneys absorbed dose coefficient, mean (SD)",[1]; GEP-NET,0.71 (0.25) Gy/GBq
same,"Kidneys absorbed dose coefficient, median (range)",[1]; GEP-NET,0.71 (0.46–0.96) Gy/GBq
same,"Red marrow (blood) absorbed dose coefficient, mean (SD)",[1]; GEP-NET,0.024 (0.0035) Gy/GBq
same,"Red marrow (blood) absorbed dose coefficient, median (range)",[1]; GEP-NET,0.024 (0.019–0.027) Gy/GBq
same,"Red marrow (blood) projected CAD, mean (SD)",[1]; GEP-NET,0.70 (0.10) Gy
same,"Red marrow (blood) projected CAD, median (range)",[1]; GEP-NET,0.72 (0.55–0.79) Gy
same,"Spleen absorbed dose coefficient, mean (SD)",[1]; GEP-NET,0.63 (0.39) Gy/GBq
same,"Spleen absorbed dose coefficient, median (range)",[1]; GEP-NET,0.55 (0.28–1.1) Gy/GBq
same,"Spleen projected CAD, mean (SD)",[1]; GEP-NET,19 (12) Gy
same,"Spleen projected CAD, median (range)",[1]; GEP-NET,16 (8.3–34) Gy
same,"Total body absorbed dose coefficient, mean (SD)",[1]; GEP-NET,0.040 (0.013) Gy/GBq
same,"Total body absorbed dose coefficient, median (range)",[1]; GEP-NET,0.040 (0.022–0.055) Gy/GBq
same,"Total body projected CAD, mean (SD)",[1]; GEP-NET,1.2 (0.40) Gy
same,"Total body projected CAD, median (range)",[1]; GEP-NET,1.2 (0.66–1.6) Gy
same,"Urinary bladder wall absorbed dose coefficient, mean (SD)",[1]; GEP-NET,0.50 (0.034) Gy/GBq
same,"Urinary bladder wall absorbed dose coefficient, median (range)",[1]; GEP-NET,0.49 (0.47–0.54) Gy/GBq
same,"Urinary bladder wall projected CAD, mean (SD)",[1]; GEP-NET,15 (1.0) Gy
same,"Urinary bladder wall projected CAD, median (range)",[1]; GEP-NET,14 (14–16) Gy
same,"Tumour absorbed dose coefficient, mean (SD)","[1]; GEP-NET, 8 lesions",2.6 (1.2) Gy/GBq
same,"Tumour absorbed dose coefficient, median (range)","[1]; GEP-NET, 8 lesions",2.3 (1.4–5.1) Gy/GBq
same,"Tumour projected CAD, mean (SD)","[1]; GEP-NET, 8 lesions",76 ± 35 Gy and 76 (35) Gy
same,"Tumour projected CAD, median (range)","[1]; GEP-NET, 8 lesions",69 (41–150) Gy
same,"Pituitary absorbed dose coefficient, mean (SD)","[1]; GEP-NET, n=3",1.2 (0.43) Gy/GBq
same,"Pituitary absorbed dose coefficient, median (range)","[1]; GEP-NET, n=3",1.1 (0.93–1.7) Gy/GBq
same,"Pituitary projected CAD, mean (SD)","[1]; GEP-NET, n=3",37 (13) Gy
same,"Pituitary projected CAD, median (range)","[1]; GEP-NET, n=3",32 (28–51) Gy
same,"Kidneys projected CAD, mean (SD)",[1]; GEP-NET,21 (7.3) Gy
same,"Kidneys projected CAD, median (range)",[1]; GEP-NET,21 (14–28) Gy
same,"Kidneys absorbed dose coefficient, mean (SD)",[1]; PPGL,0.82 (0.32) Gy/GBq
same,"Kidneys absorbed dose coefficient, median (range)",[1]; PPGL,0.71 (0.55–1.3) Gy/GBq
same,"Pituitary absorbed dose coefficient, mean (SD)",[1]; PPGL,1.0 (0.45) Gy/GBq
same,"Pituitary absorbed dose coefficient, median (range)",[1]; PPGL,0.93 (0.61–1.9) Gy/GBq
same,"Pituitary projected CAD, mean (SD)",[1]; PPGL,31 (13) Gy
same,"Pituitary projected CAD, median (range)",[1]; PPGL,28 (18–56) Gy
same,"Red marrow (blood) absorbed dose coefficient, mean (SD)",[1]; PPGL,0.028 (0.0052) Gy/GBq
same,"Red marrow (blood) absorbed dose coefficient, median (range)",[1]; PPGL,0.029 (0.022–0.035) Gy/GBq
same,"Red marrow (blood) projected CAD, mean (SD)",[1]; PPGL,0.83 (0.16) Gy
same,"Red marrow (blood) projected CAD, median (range)",[1]; PPGL,0.87 (0.64–1.0) Gy
same,"Spleen absorbed dose coefficient, mean (SD)",[1]; PPGL,0.82 (0.17) Gy/GBq
same,"Spleen absorbed dose coefficient, median (range)",[1]; PPGL,0.81 (0.64–1.1) Gy/GBq
same,"Spleen projected CAD, mean (SD)",[1]; PPGL,24 (5.0) Gy
same,"Spleen projected CAD, median (range)",[1]; PPGL,24 (19–31) Gy
same,"Total body absorbed dose coefficient, mean (SD)",[1]; PPGL,0.041 (0.0073) Gy/GBq
same,"Total body projected CAD, mean (SD)",[1]; PPGL,1.2 (0.21) Gy
same,"Total body projected CAD, median (range)",[1]; PPGL,1.2 (0.97–1.5) Gy
same,"Urinary bladder wall absorbed dose coefficient, mean (SD)",[1]; PPGL,0.59 (0.096) Gy/GBq
same,"Urinary bladder wall absorbed dose coefficient, median (range)",[1]; PPGL,0.63 (0.47–0.68) Gy/GBq
same,"Urinary bladder wall projected CAD, mean (SD)",[1]; PPGL,17 (2.8) Gy
same,"Urinary bladder wall projected CAD, median (range)",[1]; PPGL,19 (14–20) Gy
same,"Tumour absorbed dose coefficient, mean (SD)","[1]; PPGL, 10 lesions",1.5 (1.1) Gy/GBq
same,"Tumour absorbed dose coefficient, median (range)","[1]; PPGL, 10 lesions",1.2 (0.17–3.3) Gy/GBq
same,"Tumour projected CAD, mean (SD)","[1]; PPGL, 10 lesions",44 ± 34 Gy and 44 (34) Gy
same,"Tumour projected CAD, median (range)","[1]; PPGL, 10 lesions",36 (4.9–98) Gy
same,"Kidneys projected CAD, mean (SD)",[1]; PPGL,24 (9.3) Gy
same,"Kidneys projected CAD, median (range)",[1]; PPGL,21 (16–40) Gy
same,"AUClast, geometric mean (geometric CV%)",[2]; [7],41.00 (24.15) ng.h/mL
same,"Cmax, geometric mean (geometric CV%)",[2]; [7],11.17 (33.04) ng/mL
same,"Tmax, median (range)",[2]; [7],0.58 (0.50–0.77) hours
same,"T½β, population value",[2]; adolescents,36.9 h
same,"AUCinf, overall mean ± SD",[2]; [8],35.84 ± 4.49 ng·h/mL
same,"Cmax, overall mean ± SD",[2]; [8],10.33 ± 0.54 ng/mL
same,"clearance, overall mean ± SD",[2]; [8],5.98 ± 0.69 L/h
same,Grade ≥ 3 biochemistry abnormalities,[3],No
same,deaths by data cutoff,[4],no deaths
same,patients with AEs that resulted in infusion interruptions,[4],18%
same,treatment-related nephrotoxicity,[4],no treatment-related nephrotoxicity was observed
same,Bone marrow Probability (%) >2 Gy,[5],6%
same,Kidneys Probability (%) >29 Gy,[5],13%
same,"AUClast, geometric mean (geometric CV%)","[6]; Observed, adult GEP-NET N=20",30.08 (50.38) ng.h/mL
same,"Cmax, geometric mean (geometric CV%)","[6]; Observed, adult GEP-NET N=20",8.98 (73.28) ng/mL
same,"Tmax, median (range)","[6]; Observed, adult GEP-NET N=20",0.47 (0.25–1.17) hours
same,T½β,[6]; adults with GEP-NET,59.1 h
